# According to patent US20260242478A1 (published 2026):
# Where no end group is shown, it is not given here.
# B1: Phage-211 (peptide)
# peptide: MDWCPRNMWTVCFL
# notes: tested as crude clonal phage supernatant
# B2: Phage-168 (peptide, not shown: large carriers)
# peptide: MDWCPKDLWHECFN
# modifications: cysteine pairing not given here; also: displayed as fusion to phage pIII, linker and pIII sequence not given here
# notes: Clonal phage of the Peptide-9 library
# B3: Phage-171 (peptide, not shown: large carriers)
# peptide: MNWCPSHLWHMCYF
# modifications: cysteine pairing not given here; also: displayed as fusion to phage pIII, linker and pIII sequence not given here
# notes: as for B2
# B4: Phage-170 (peptide, not shown: large carriers)
# peptide: MNWCPSDLWHLCFN
# modifications: cysteine pairing not given here; also: displayed as fusion to phage pIII, linker and pIII sequence not given here
# notes: as for B2
# B5: Phage-167 (peptide, not shown: large carriers)
# peptide: MSWCPQDLWHVCFN
# modifications: cysteine pairing not given here; also: displayed as fusion to phage pIII, linker and pIII sequence not given here
# notes: as for B2
# B6: Phage-231 (peptide)
# peptide: VPWCLIISGLDCLN
# notes: also called VPWCLIISGLDCIN (so in the source)
# Target: T1, anti-CD28 scFv (VH - linker 1 - VL) (biotinylated (site not stated))
# T1 construct: Captured as biotinylated scFv on neutravidin coated plates in the clonal phage ELISA
# Experiment: clonal phage ELISA; biotinylated anti-CD28 scFv on neutravidin plate, anti-M13-HRP detection;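 further: crude supernatants of phage clones were tested in wells pretreated with blocking buffer either alone or supplemented with soluble CD28 protein before phage addition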
# T1 sequence (scFv, as listed by the source): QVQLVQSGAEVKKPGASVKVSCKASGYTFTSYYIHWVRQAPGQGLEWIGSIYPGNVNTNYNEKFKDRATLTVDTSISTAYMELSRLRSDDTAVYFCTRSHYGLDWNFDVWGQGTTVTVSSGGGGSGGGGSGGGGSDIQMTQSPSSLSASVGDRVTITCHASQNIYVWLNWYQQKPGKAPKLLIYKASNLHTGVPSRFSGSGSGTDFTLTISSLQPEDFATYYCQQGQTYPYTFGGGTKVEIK
# Description: (§1) Clonal phage were harvested as crude supernatants and screened via standard enzyme linked immunosorbent assays (ELISAs). […] Prior to the addition of clonal phage, wells were incubated with blocking buffer and CD28 soluble protein or blocking buffer alone. Without washing or aspirating, clonal phage supernatants were then added to the wells and incubated for a short time. Wells were then washed followed by detection of bound phage using a horse radish peroxidase conjugated anti-M13 antibody.
row,Binder,CD28 scFv signal
1,B1,1.12

# Target: T2, anti-CD28 scFv (VH - linker 1 - VL) (biotinylated (site not stated))
# Experiment: phage ELISA; biotinylated anti-CD28 scFv on neutravidin plate, clonal phage supernatant, anti-M13-HRP detection;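 further: before phage addition, wells were pretreated with soluble CD28 protein in blocking buffer, or with blocking buffer only as the comparison, then phage were added without washing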
# T2 sequence (scFv, as listed by the source): as above
row,Binder,CD28 scFv signal
1,"MHWCPLHLWNECYH (peptide, not shown: large carriers, Clonal phage of the Peptide-9 library) [Phage-155]",1.37
2,"MFWCPRYLWHECFN (peptide, not shown: large carriers, Clonal phage of the Peptide-9 library) [Phage-163]",1.08
3,B2,0.762
4,"MDWCPRYLWTECFF (peptide, not shown: large carriers, Clonal phage of the Peptide-9 library) [Phage-158]",1.26
5,"MNWCPTDLWHECFN (peptide, not shown: large carriers, Clonal phage of the Peptide-9 library) [Phage-162]",1.09
6,B3,0.702
7,"MDWCPKHLWHQCFH (peptide, not shown: large carriers, Clonal phage of the Peptide-9 library) [Phage-156]",1.35
8,B4,0.739
9,"MDWCPRHLWDLCFF (peptide, not shown: large carriers, Clonal phage of the Peptide-9 library) [Phage-153]",1.4
10,"MDWCPRHLWDQCFA (peptide, not shown: large carriers, Clonal phage of the Peptide-9 library) [Phage-161]",1.12
11,"MDWCPFYLWDECFL (peptide, not shown: large carriers, Clonal phage of the Peptide-9 library) [Phage-165]",1.02
12,"MHWCPRALWHECFN (peptide, not shown: large carriers, Clonal phage of the Peptide-9 library) [Phage-160]",1.18
13,"MDWCPRSLWSYCFH (peptide, not shown: large carriers, Clonal phage of the Peptide-9 library) [Phage-157]",1.33
14,B5,0.86
15,"MAWCPMNLWDQCFF (peptide, not shown: large carriers, Clonal phage of the Peptide-9 library) [Phage-159]",1.2
16,"MDWCPKFLWDLCFA (peptide, not shown: large carriers, Clonal phage of the Peptide-9 library) [Phage-164]",1.07

# Target: T3, Anti-CD28 scFv (VH - linker 1 - VL) (biotinylated (site not stated))
# T3 construct: Biotinylated scFv captured on neutravidin coated plates in the panning ELISA
# Experiment: phage ELISA; biotinylated anti-CD28 scFv on neutravidin plate, wells pre-incubated with soluble CD28 (competitor), anti-M13-HRP detection;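 further: bound clonal phage detected by peroxidase-labelled anti-M13 antibody, compared against wells given blocking buffer alone without soluble CD28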
# T3 sequence (scFv, as listed by the source): as above
row,Binder,CD28 scFv signal in presence of CD28
1,MDWCPLYLWAECFN (tested as crude phage supernatant) [Phage-298],0.193
2,MDWCPRHLWTECFS (tested as crude phage supernatant) [Phage-297],0.243
3,MDWCPRYLWNVCFA (tested as crude phage supernatant) [Phage-289],0.28

# Target: T4, anti-CD28 scFv (VH - linker 1 - VL) (biotinylated (captured on neutravidin coated plates))
# Experiment: clonal phage ELISA on anti-CD28 scFv; wells pre-incubated with soluble CD28 (competitor);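 further: crude phage supernatants added to wells preloaded with blocking buffer plus soluble CD28, bound phage read with HRP-linked anti-M13 antibody, comparison wells received blocking buffer only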
# Description: as §1
# T4 sequence (scFv, as listed by the source): as above
row,Binder,CD28 scFv signal in presence of CD28
1,MDWCPRDRWVDCFF [Phage-223],0.14
2,MDWCPRDRWADCFF [Phage-225],0.089
3,MDWCPSDMWAHCYN [Phage-249],0.109
4,MDWCPRFMWAECFN [Phage-247],0.341
5,MDWCPRDLWNLCFF [Phage-236],0.436
6,MDWCPRYLWHVCFN [Phage-239],0.409
7,MDWCPRTLWHVCFN [Phage-240],0.551
8,MDWCPRHLWHECYS [Phage-241],0.374
9,MDWCPKHLWNKCFN [Phage-246],0.092
10,MDWCPRNLWHLCFA [Phage-245],0.164
11,MDWCPRHLWYECFN [Phage-243],0.167
12,MDWCPRALWFECFF [Phage-234],0.331
13,VPWCQIISGLECLT [Phage-229],0.077
14,APWCQIISGLECLT [Phage-230],0.078
15,MTWCPTSFWNRCLD [Phage-233],0.405
16,MDWCPPYLWSECFA [Phage-238],0.234
17,ITWCHVISGLECWN [Phage-228],0.1
18,MDWCPRDRWIDCFN [Phage-226],0.131
19,MDWCPRDRWSDCFN [Phage-227],0.074
20,MDWCPSYLWHECFF [Phage-237],0.447
21,MDWCPRNMWHHCFD [Phage-248],0.524
22,MDWCPKHLWTECFA [Phage-242],0.145
23,MDWCPKVMWHYCFA [Phage-250],0.252
24,B6,0.09
25,MDWCARFVGYGCLD [Phage-232],0.074
26,MDWCPRYLWHECFS [Phage-235],0.303
27,MDWCPRYLWHECFD [Phage-244],0.177

# Target: T2, anti-CD28 scFv (VH - linker 1 - VL)
# Experiment: phage ELISA as above, wells pre-incubated with soluble CD28 (competitor);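 further: ELISA of crude clonal phage supernatants added to wells pre-treated with soluble CD28 in blocking buffer, bound phage read out with HRP-conjugated anti-M13 antibody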
row,Binder,CD28 scFv signal in presence of CD28
1,"MHWCPLHLWNECYH (peptide, not shown: large carriers, Clonal phage of the Peptide-9 library) [Phage-155]",0.113
2,"MFWCPRYLWHECFN (peptide, not shown: large carriers, Clonal phage of the Peptide-9 library) [Phage-163]",0.175
3,B2,0.1
4,"MDWCPRYLWTECFF (peptide, not shown: large carriers, Clonal phage of the Peptide-9 library) [Phage-158]",0.244
5,"MNWCPTDLWHECFN (peptide, not shown: large carriers, Clonal phage of the Peptide-9 library) [Phage-162]",0.095
6,B3,0.192
7,"MDWCPKHLWHQCFH (peptide, not shown: large carriers, Clonal phage of the Peptide-9 library) [Phage-156]",0.108
8,B4,0.131
9,"MDWCPRHLWDLCFF (peptide, not shown: large carriers, Clonal phage of the Peptide-9 library) [Phage-153]",0.182
10,"MDWCPRHLWDQCFA (peptide, not shown: large carriers, Clonal phage of the Peptide-9 library) [Phage-161]",0.144
11,"MDWCPFYLWDECFL (peptide, not shown: large carriers, Clonal phage of the Peptide-9 library) [Phage-165]",0.141
12,"MHWCPRALWHECFN (peptide, not shown: large carriers, Clonal phage of the Peptide-9 library) [Phage-160]",0.144
13,"MDWCPRSLWSYCFH (peptide, not shown: large carriers, Clonal phage of the Peptide-9 library) [Phage-157]",0.152
14,B5,0.112
15,"MAWCPMNLWDQCFF (peptide, not shown: large carriers, Clonal phage of the Peptide-9 library) [Phage-159]",0.145
16,"MDWCPKFLWDLCFA (peptide, not shown: large carriers, Clonal phage of the Peptide-9 library) [Phage-164]",0.139

# Target: T4, anti-CD28 scFv (VH - linker 1 - VL)
# Experiment: clonal phage ELISA; biotinylated anti-CD28 scFv on neutravidin plate, phage detected with anti-M13-HRP;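 further: crude clonal phage supernatants added to wells preincubated with blocking buffer alone or blocking buffer plus soluble CD28 protein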
# Description: as §1
row,Binder,CD28 scFv signal
1,MDWCPRDRWVDCFF [Phage-223],1.58
2,MDWCPRDRWADCFF [Phage-225],0.392
3,MDWCPKDRWNDCYF [Phage-224],1.09
4,MDWCPSDMWAHCYN [Phage-249],1.21
5,MDWCPRFMWAECFN [Phage-247],2.6
6,MDWCPRYLWHVCFN [Phage-239],2.6
7,MDWCPRTLWHVCFN [Phage-240],2.6
8,MDWCPRHLWHECYS [Phage-241],2.58
9,MDWCPKHLWNKCFN [Phage-246],1.16
10,MDWCPRNLWHLCFA [Phage-245],1.4
11,MDWCPRHLWYECFN [Phage-243],2.41
12,MDWCPRALWFECFF [Phage-234],2.67
13,VPWCQIISGLECLT [Phage-229],0.174
14,APWCQIISGLECLT [Phage-230],0.169
15,MTWCPTSFWNRCLD [Phage-233],0.392
16,MDWCPPYLWSECFA [Phage-238],2.6
17,ITWCHVISGLECWN [Phage-228],0.193
18,MDWCPRDRWIDCFN [Phage-226],0.339
19,MDWCPRDRWSDCFN [Phage-227],0.102
20,MDWCPSYLWHECFF [Phage-237],2.61
21,MDWCPRNMWHHCFD [Phage-248],1.6
22,MDWCPKHLWTECFA [Phage-242],2.49
23,MDWCPKVMWHYCFA [Phage-250],1.14
24,B6,0.107
25,MDWCARFVGYGCLD [Phage-232],0.065
26,MDWCPRYLWHECFS [Phage-235],2.65
27,MDWCPRYLWHECFD [Phage-244],2.07
